Reference: US20200199231A1 (Genmab, published 2020)
Residue numbers refer to the chain shown, from its start. Each block holds one binder with its values, some of them ahead of it.

Experiments:
[1] = target: T1, human CD20 (human, UniProt P11836 1-297); experiment: flow cytometry on Daudi cells (CD20-positive, CD3-negative); PE-conjugated goat anti-human IgG F(ab')2; geomean (PE)
T1 construct: whole, on cells; On Daudi and other human B cell lines, on human B cells in blood, or transiently expressed in HEK293F cells (construct pEE12.4CD20HS-GA); also called wild type CD20; WT CD20
T1 sequence (looked up): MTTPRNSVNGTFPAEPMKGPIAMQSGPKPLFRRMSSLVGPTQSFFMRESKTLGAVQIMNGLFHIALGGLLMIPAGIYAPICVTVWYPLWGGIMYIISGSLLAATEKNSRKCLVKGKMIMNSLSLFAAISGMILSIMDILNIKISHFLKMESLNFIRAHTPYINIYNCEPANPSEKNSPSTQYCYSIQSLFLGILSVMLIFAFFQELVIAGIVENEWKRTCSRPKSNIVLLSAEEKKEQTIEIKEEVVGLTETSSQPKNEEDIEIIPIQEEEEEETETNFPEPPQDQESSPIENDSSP
Method: (§1) In addition to the non-activating mutations, L234F, L235E, D265A, on both arms, the bispecific antibody contained an F405L mutation on one arm and a K409R mutation on the other arm.
(§2) Cells (1×10⁵ cells/well) were incubated in polystyrene 96-well round-bottom plates (Greiner bio-one, cat. no. 650101) with serial dilutions of antibodies (range 0.041 to 30 μg/mL in 3-fold dilution steps [A-E] and 0.00061 to 10 μg/mL in 4-fold dilution steps [F-I]) in 100 μL PBS/0.1% BSA/0.02% azide (from here designated as staining buffer) at 4° C. for 30 min.
(§3) After washing twice in staining buffer, cells were incubated in 50 μL secondary antibody at 4° C. for 30 min. As a secondary antibody, R-Phycoerythrin (PE)-conjugated goat-anti-human IgG F(ab′)₂ (cat. no. 109-116-098, Jackson ImmunoResearch Laboratories, Inc., West Grove, Pa.) diluted 1:200 in staining buffer, was used for all experiments. Next, cells were washed twice in staining buffer, re-suspended in 30 μL staining buffer and analyzed on an iQue screener (Intellicyt Corporation, USA) (for FIG. 1A-E) or re-suspended in 100 μL staining buffer and analyzed on a FACSCANTOII (BD Biosciences) (FIG. 1F-I). Binding curves were analyzed using non-linear regression (sigmoidal dose-response with variable slope) using GraphPad Prism V75.04 software (GraphPad Software, San Diego, Calif., USA).

[2] = target: T2, CD20 KDD mutant (human, UniProt P11836 1-297); experiment: flow cytometry, HEK293F cells expressing CD20 KDD mutant
T2 construct: whole, on cells; Transiently expressed in HEK293F cells; also called T159K/N163D/N166D
T2 sequence (looked up): T1 sequence (looked up) with T159K, N163D, N166D
Method: (§4) PCR was performed on a Tgradient Thermocycler 96 (Biometra) using a 35 cycle program of: +95° C. for 15 min, followed by 35 cycles of: +94° C. for 30 sec, anneal: 55° C. for 30 sec and extension: +72° C. for 2 min, followed by a final extension step at 72° C. for 10 min and subsequent storage at 4° C. The completed reactions were analyzed by agarose gel electrophoresis. See Table 11 for details of primer pairs used for colony PCR. DNA sequencing: Plasmid DNA samples were send to AGOWA (Berlin, Germany) for sequence analysis. Sequences were analyzed using the VectorNTI software package (Informax, Frederick, Md., USA).
(§5) Mutagenesis: The mutagenesis was performed, using the QuikChange® XL Site-Directed Mutagenesis kit (Cat 200517-5, Lot 1120630, Stratagene Europe) according to the manufacturer's instructions. Mutagenesis reactions were concentrated using ethanol precipitation and transformed into either oneshot DH5α-TIR competent E. coli cells or electroporated into ElectroTen-Blue® Electroporation-Competent Cells. Colonies were checked by colony PCR and restriction digestion prior to transfection. […] Anti-CD20 Antibody binding: HEK293F cells were taken up in staining buffer (PBS supplemented with 0.1% BSA and 0.02% NaN₃) and added to round bottom plates (1-3×10⁵/well in 100 μL). […] After washing twice in staining buffer, cells were incubated in 50 μL secondary antibody at 4° C. for 30 min. As a secondary antibody, R-Phycoerythrin (PE)-conjugated goat-anti-human IgG F(ab′)₂ was used, as described supra. Next, cells were washed once in staining buffer, re-suspended in 150 μL staining buffer and analyzed on a flow cytometer (FACSCanto-720, Becton Dickinson, San Diego, Calif., USA) and 10,000 events per sample were acquired at high flow rate. Binding curves were analyzed using non-linear regression (sigmoidal dose-response with variable slope) using GraphPad Prism V75.04 software (GraphPad Software, San Diego, Calif., USA).

[3] = target: T3, CD20-AxP (human, UniProt P11836 1-297); experiment: flow cytometry, HEK293F transfectants, MFI mutant/MFI wt at 10 µg/mL
T3 construct: whole, on cells; Transiently expressed in HEK293F cells; also called AxP mutant; CD20 mutant (CD20-AxP)
T3 sequence (looked up): T1 sequence (looked up) with A170S, P172S
Method: (§6) As a secondary antibody, R-Phycoerythrin (PE)-conjugated goat-anti-human IgG F(ab′)₂ was used, as described supra. Next, cells were washed once in staining buffer, re-suspended in 150 μL staining buffer and analyzed on a flow cytometer (FACSCanto-720, Becton Dickinson, San Diego, Calif., USA) and 10,000 events per sample were acquired at high flow rate. Binding curves were analyzed using non-linear regression (sigmoidal dose-response with variable slope) using GraphPad Prism V75.04 software (GraphPad Software, San Diego, Calif., USA).
(§7) Numbers indicate the percentage of binding to the CD20 mutants, relative to binding to wild type CD20, at 10 μg/mL. The percentage of binding was calculated by the following formula: (MFI binding to CD20 mutant)/(MFI binding CD20 wt) × 100%

[4] = target: T2, CD20 KDD mutant; experiment: as above
Method: as §6, §7

[5] = target: T1, human CD20; experiment: flow cytometry on Daudi cells (CD20-positive, CD3-negative); PE-conjugated goat anti-human IgG F(ab')2; median FI (PE)
Method: as §1, §2, §3

[6] = target: T1, human CD20; experiment: flow cytometry on HEK293F cells transiently expressing wild type CD20; PE-conjugated goat anti-human IgG F(ab')2; MFI
Method: as §4, §5

[7] = target: T4, human CD3 (human, UniProt P07766 22-207); experiment: flow cytometry on Jurkat cells (CD3-positive, CD20-negative); PE-conjugated goat anti-human IgG F(ab')2; median FI (PE)
T4 construct: CD3 as part of the TCR complex on Jurkat cells or human T cells; also called human CD3ε (epsilon)
T4 sequence (P07766 22-207 limits assumed): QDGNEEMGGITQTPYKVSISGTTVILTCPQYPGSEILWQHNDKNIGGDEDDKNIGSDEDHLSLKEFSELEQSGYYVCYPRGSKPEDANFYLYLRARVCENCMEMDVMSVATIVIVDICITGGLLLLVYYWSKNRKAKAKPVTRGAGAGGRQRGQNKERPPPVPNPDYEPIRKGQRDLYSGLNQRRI
Method: as §1, §2, §3

[8] = target: T3, CD20-AxP; experiment: flow cytometry on HEK293F cells transiently expressing CD20-AxP (A170S/P172S); PE-conjugated goat anti-human IgG F(ab')2; MFI
Method: as §4, §5

EC50 (read off the curve) [1]: ~2 µg/mL
B1: IgG1-11B8 (antibody, V domains shown)
VH: EVQLVQSGGGLVHPGGSLRLSCTGSGFTFSYHAMHWVRQAPGKGLEWVSIIGTGGVTYYADSVKGRFTISRDNVKNSLYLQMNSLRAEDMAVYYCARDYYGAGSFYDGLYGMDVWGQGTTVTVSS
VL: EIVLTQSPATLSLSPGERATLSCRASQSVSSYLAWYQQKPGQAPRLLIYDASNRATGIPARFSGSGSGTDFTLTISSLEPEDFAVYYCQQRSDWPLTFGGGTKVEIK
notes: Monospecific, bivalent IgG1

% of wt CD20 binding [3]: 118%
% of wt CD20 binding [4]: 54%
EC50 (read off the curve) [6]: ~0.1 µg/mL
EC50 (read off the curve) [7]: ~0.06 µg/mL
EC50 (read off the curve) [8]: ~0.3 µg/mL
B3: bsIgG1-huCLB-T3/4-FEALxCD20-11B8-FEAR (bispecific antibody)
heavy 1: EVQLVESGGGLVKPGGSLRLSCAASGFTFSSYGMFWVRQAPGKGLEWVATISRYSRYIYYPDSVKGRFTISRDNAKNSLYLQMNSLRAEDTAVYYCARRPLYGSSPDYWGQGTLVTVSSASTKGPSVFPLAPSSKSTSGGTAALGCLVKDYFPEPVTVSWNSGALTSGVHTFPAVLQSSGLYSLSSVVTVPSSSLGTQTYICNVNHKPSNTKVDKRVEPKSCDKTHTCPPCPAPEFEGGPSVFLFPPKPKDTLMISRTPEVTCVVVAVSHEDPEVKFNWYVDGVEVHNAKTKPREEQYNSTYRVVSVLTVLHQDWLNGKEYKCKVSNKALPAPIEKTISKAKGQPREPQVYTLPPSREEMTKNQVSLTCLVKGFYPSDIAVEWESNGQPENNYKTTPPVLDSDGSFLLYSKLTVDKSRWQQGNVFSCSVMHEALHNHYTQKSLSLSPGK
VL 1: EIVLTQSPATLSLSPGERATLSCSASSSVTYVHWYQQKPGQAPRLLIYDTSKLASGIPARFSGSGSGTDFTLTISSLEPEDFAVYYCFQGSGYPLTFGSGTKLEMR
heavy 2: EVQLVQSGGGLVHPGGSLRLSCTGSGFTFSYHAMHWVRQAPGKGLEWVSIIGTGGVTYYADSVKGRFTISRDNVKNSLYLQMNSLRAEDMAVYYCARDYYGAGSFYDGLYGMDVWGQGTTVTVSSASTKGPSVFPLAPSSKSTSGGTAALGCLVKDYFPEPVTVSWNSGALTSGVHTFPAVLQSSGLYSLSSVVTVPSSSLGTQTYICNVNHKPSNTKVDKRVEPKSCDKTHTCPPCPAPEFEGGPSVFLFPPKPKDTLMISRTPEVTCVVVAVSHEDPEVKFNWYVDGVEVHNAKTKPREEQYNSTYRVVSVLTVLHQDWLNGKEYKCKVSNKALPAPIEKTISKAKGQPREPQVYTLPPSREEMTKNQVSLTCLVKGFYPSDIAVEWESNGQPENNYKTTPPVLDSDGSFFLYSRLTVDKSRWQQGNVFSCSVMHEALHNHYTQKSLSLSPGK
VL 2: B1 VL
notes: also called huCLB-T3/4x11B8; bsIgG1-huCLB-3/4-FEALxCD20-11B8-FEAR

binding result [2]: no binding (tested: 0.0015-10 µg/mL)
% of wt CD20 binding [3]: 112%
% of wt CD20 binding [4]: 5%
EC50 (read off the curve) [5]: ~0.3 µg/mL
EC50 (read off the curve) [6]: ~0.1 µg/mL
EC50 (read off the curve) [7]: ~0.06 µg/mL
EC50 (read off the curve) [8]: ~0.2 µg/mL
B5: bsIgG1-huCLB-T3/4-FEALxCD20-2F2-FEAR (bispecific antibody)
heavy 1: B3 heavy 1
VL 1: B3 VL 1
heavy 2: EVQLVESGGGLVQPGRSLRLSCAASGFTFNDYAMHWVRQAPGKGLEWVSTISWNSGSIGYADSVKGRFTISRDNAKKSLYLQMNSLRAEDTALYYCAKDIQYGNYYYGMDVWGQGTTVTVSSASTKGPSVFPLAPSSKSTSGGTAALGCLVKDYFPEPVTVSWNSGALTSGVHTFPAVLQSSGLYSLSSVVTVPSSSLGTQTYICNVNHKPSNTKVDKRVEPKSCDKTHTCPPCPAPEFEGGPSVFLFPPKPKDTLMISRTPEVTCVVVAVSHEDPEVKFNWYVDGVEVHNAKTKPREEQYNSTYRVVSVLTVLHQDWLNGKEYKCKVSNKALPAPIEKTISKAKGQPREPQVYTLPPSREEMTKNQVSLTCLVKGFYPSDIAVEWESNGQPENNYKTTPPVLDSDGSFFLYSRLTVDKSRWQQGNVFSCSVMHEALHNHYTQKSLSLSPGK
VL 2: B1 VL with D93N, L96I, G100Q, K103R, V104L
notes: also called huCLB-T3/4x2F2; bsIgG1-huCLB-3/4-FEALxCD20-2F2-FEAR

More lines, now with the values behind:

B2: bsIgG1-huCLB-T3/4-FEALxCD20-7D8-FEAR (bispecific antibody)
heavy 1: B3 heavy 1
VL 1: B3 VL 1
heavy 2: B5 heavy 2 with G15D, N30H, S57T, K77N
VL 2: B1 VL with D93N, L96I, G100Q, K103R, V104L
notes: also called huCLB-T3/4x7D8; bsIgG1-huCLB-3/4-FEALxCD20-7D8-FEAR
binding result [2]: no binding (tested: 0.0015-10 µg/mL)
% of wt CD20 binding [3]: 113%
% of wt CD20 binding [4]: 3%
EC50 (read off the curve) [5]: ~0.8 µg/mL
EC50 (read off the curve) [6]: ~0.1 µg/mL
EC50 (read off the curve) [7]: ~0.1 µg/mL
EC50 (read off the curve) [8]: ~0.2 µg/mL

B4: IgG1-7D8 (antibody, V domains shown)
VH: EVQLVESGGGLVQPDRSLRLSCAASGFTFHDYAMHWVRQAPGKGLEWVSTISWNSGTIGYADSVKGRFTISRDNAKNSLYLQMNSLRAEDTALYYCAKDIQYGNYYYGMDVWGQGTTVTVSS
VL: B1 VL with D93N, L96I, G100Q, K103R, V104L
notes: Monospecific, bivalent IgG1
EC50 (read off the curve) [1]: ~0.6 µg/mL
